From patent US20260109758A1 (BIOSION, published 2026)
Read-outs that look alike come from different tables or passages of the source.

B1: BSI-502-003 (bispecific antibody, human IgG1, kappa)
heavy: EVQLVESGGGLVQPGGSLRLSCAASGFTFSTYGMSWVRQAPGKGLVWVATINSNGGSTSYPDSVKGRFTISRDNAKNTLYLQMNSLRAEDTAVYYCARFFRFRNAMDYWGQGTLVTVSSGGGGSGGGGSGGGGSGGGGSDIQMTQSPSSLSASVGDRVTITCRTSENIYSYLAWYQQKPGKAPKFLVYNAKTLAEGVPSRFSGSGSGTDFTLTISSLQPEDFATYYCQHYYGPPTWTFGQGTKVEIKGGGGSGGGGSQVQLVQSGAEVKKPGASVKVSCKASGYTFTTYWMHWVRQAPGQGLEWMGVIDPSDSDTTYNQKFKGRVTMTRDTSTSTVYMELSSLRSEDTAVYYCTRSLDGYYDYWGQGTLVTVSSASTKGPSVFPLAPSSKSTSGGTAALGCLVKDYFPEPVTVSWNSGALTSGVHTFPAVLQSSGLYSLSSVVTVPSSSLGTQTYICNVNHKPSNTKVDKKVEPKSCDKTHTCPPCPAPEAQGGPSVFLFPPKPKDTLYITREPEVTCVVVDVSHEDPEVKFNWYVDGVEVHNAKTKPREEQYNSTYRVVSVLTVLHQDWLNGKEYKCQVSNKALPAPIEKTISKAKGQPREPQVYTLPPSRDELTKNQVSLTCLVKGFYPSDIAVEWESNGQPENNYKTTPPVLDSDGSFFLYSKLTVDKSRWQQGNVFSCSVMHEALHNHYTQKSLSLSPG
light: DIQMTQSPSSLSASVGDRVTITCRPTENIYSYLAWYQQKPGKAPKLLIYFARTLAEGVPSRFSGSGSGTDFTLTISSLQPEDFATYYCQHHYGTPWTFGGGTKVEIKRTVAAPSVFIFPPSDEQLKSGTASVVCLLNNFYPREAKVQWKVDNALQSGNSQESVTEQDSKDSTYSLSSTLTLSKADYEKHKVYACEVTHQGLSSPVTKSFNRGEC
notes: hu1C5F12E9-V8 IgG with an anti-IL4R scFv (huC2C1A1A1-V15, VH-VL) at the N-terminus of the heavy chain; AQQ and YTE already stand in the entry
B2: BSI-502-005 (bispecific antibody, human IgG1, kappa)
heavy: QVQLVQSGAEVKKPGASVKVSCKASGYTFTTYWMHWVRQAPGQGLEWMGVIDPSDSDTTYNQKFKGRVTMTRDTSTSTVYMELSSLRSEDTAVYYCTRSLDGYYDYWGQGTLVTVSSASTKGPSVFPLAPSSKSTSGGTAALGCLVKDYFPEPVTVSWNSGALTSGVHTFPAVLQSSGLYSLSSVVTVPSSSLGTQTYICNVNHKPSNTKVDKKVEPKSCDKTHTCPPCPAPEAQGGPSVFLFPPKPKDTLYITREPEVTCVVVDVSHEDPEVKFNWYVDGVEVHNAKTKPREEQYNSTYRVVSVLTVLHQDWLNGKEYKCQVSNKALPAPIEKTISKAKGQPREPQVYTLPPSRDELTKNQVSLTCLVKGFYPSDIAVEWESNGQPENNYKTTPPVLDSDGSFFLYSKLTVDKSRWQQGNVFSCSVMHEALHNHYTQKSLSLSPGKGGGGSGGGGSEVQLVESGGGLVQPGGSLRLSCAASGFTFSTYGMSWVRQAPGKGLVWVATINSNGGSTSYPDSVKGRFTISRDNAKNTLYLQMNSLRAEDTAVYYCARFFRFRNAMDYWGQGTLVTVSSGGGGSGGGGSGGGGSGGGGSDIQMTQSPSSLSASVGDRVTITCRTSENIYSYLAWYQQKPGKAPKFLVYNAKTLAEGVPSRFSGSGSGTDFTLTISSLQPEDFATYYCQHYYGPPTWTFGQGTKVEIK
light: B1 light
notes: hu1C5F12E9-V8 IgG with an anti-IL4R scFv (VH-VL) at the C-terminus of the heavy chain; AQQ and YTE already stand in the entry
B3: BSI-502-004 (bispecific antibody, human IgG1, kappa)
heavy: DIQMTQSPSSLSASVGDRVTITCRTSENIYSYLAWYQQKPGKAPKFLVYNAKTLAEGVPSRFSGSGSGTDFTLTISSLQPEDFATYYCQHYYGPPTWTFGQGTKVEIKGGGGSGGGGSGGGGSGGGGSEVQLVESGGGLVQPGGSLRLSCAASGFTFSTYGMSWVRQAPGKGLVWVATINSNGGSTSYPDSVKGRFTISRDNAKNTLYLQMNSLRAEDTAVYYCARFFRFRNAMDYWGQGTLVTVSSGGGGSGGGGSQVQLVQSGAEVKKPGASVKVSCKASGYTFTTYWMHWVRQAPGQGLEWMGVIDPSDSDTTYNQKFKGRVTMTRDTSTSTVYMELSSLRSEDTAVYYCTRSLDGYYDYWGQGTLVTVSSASTKGPSVFPLAPSSKSTSGGTAALGCLVKDYFPEPVTVSWNSGALTSGVHTFPAVLQSSGLYSLSSVVTVPSSSLGTQTYICNVNHKPSNTKVDKKVEPKSCDKTHTCPPCPAPEAQGGPSVFLFPPKPKDTLYITREPEVTCVVVDVSHEDPEVKFNWYVDGVEVHNAKTKPREEQYNSTYRVVSVLTVLHQDWLNGKEYKCQVSNKALPAPIEKTISKAKGQPREPQVYTLPPSRDELTKNQVSLTCLVKGFYPSDIAVEWESNGQPENNYKTTPPVLDSDGSFFLYSKLTVDKSRWQQGNVFSCSVMHEALHNHYTQKSLSLSPG
light: B1 light
notes: hu1C5F12E9-V8 IgG with an anti-IL4R scFv (VL-VH) at the N-terminus of the heavy chain; AQQ and YTE already stand in the entry
B4: BSI-502-001 (bispecific antibody, human IgG1, kappa)
heavy: EVQLVESGGGLVQPGGSLRLSCAASGFTFSTYGMSWVRQAPGKGLVWVATINSNGGSTSYPDSVKGRFTISRDNAKNTLYLQMNSLRAEDTAVYYCARFFRFRNAMDYWGQGTLVTVSSASTKGPSVFPLAPSSKSTSGGTAALGCLVKDYFPEPVTVSWNSGALTSGVHTFPAVLQSSGLYSLSSVVTVPSSSLGTQTYICNVNHKPSNTKVDKKVEPKSCDKTHTCPPCPAPEAQGGPSVFLFPPKPKDTLYITREPEVTCVVVDVSHEDPEVKFNWYVDGVEVHNAKTKPREEQYNSTYRVVSVLTVLHQDWLNGKEYKCQVSNKALPAPIEKTISKAKGQPREPQVYTLPPSRDELTKNQVSLTCLVKGFYPSDIAVEWESNGQPENNYKTTPPVLDSDGSFFLYSKLTVDKSRWQQGNVFSCSVMHEALHNHYTQKSLSLSPGKGGGGSGGGGSQVQLVQSGAEVKKPGASVKVSCKASGYTFTTYWMHWVRQAPGQGLEWMGVIDPSDSDTTYNQKFKGRVTMTRDTSTSTVYMELSSLRSEDTAVYYCTRSLDGYYDYWGQGTLVTVSSGGGGSGGGGSGGGGSGGGGSDIQMTQSPSSLSASVGDRVTITCRPTENIYSYLAWYQQKPGKAPKLLIYFARTLAEGVPSRFSGSGSGTDFTLTISSLQPEDFATYYCQHHYGTPWTFGGGTKVEIK
light: DIQMTQSPSSLSASVGDRVTITCRTSENIYSYLAWYQQKPGKAPKFLVYNAKTLAEGVPSRFSGSGSGTDFTLTISSLQPEDFATYYCQHYYGPPTWTFGQGTKVEIKRTVAAPSVFIFPPSDEQLKSGTASVVCLLNNFYPREAKVQWKVDNALQSGNSQESVTEQDSKDSTYSLSSTLTLSKADYEKHKVYACEVTHQGLSSPVTKSFNRGEC
notes: huC2C1A1A1-V15 IgG with an anti-TSLP scFv (hu1C5F12E9-V8, VH-VL) at the C-terminus of the heavy chain
B5: BSI-502-002 (bispecific antibody, human IgG1, kappa)
heavy: EVQLVESGGGLVQPGGSLRLSCAASGFTFSTYGMSWVRQAPGKGLVWVATINSNGGSTSYPDSVKGRFTISRDNAKNTLYLQMNSLRAEDTAVYYCARFFRFRNAMDYWGQGTLVTVSSASTKGPSVFPLAPSSKSTSGGTAALGCLVKDYFPEPVTVSWNSGALTSGVHTFPAVLQSSGLYSLSSVVTVPSSSLGTQTYICNVNHKPSNTKVDKKVEPKSCDKTHTCPPCPAPEAQGGPSVFLFPPKPKDTLYITREPEVTCVVVDVSHEDPEVKFNWYVDGVEVHNAKTKPREEQYNSTYRVVSVLTVLHQDWLNGKEYKCQVSNKALPAPIEKTISKAKGQPREPQVYTLPPSRDELTKNQVSLTCLVKGFYPSDIAVEWESNGQPENNYKTTPPVLDSDGSFFLYSKLTVDKSRWQQGNVFSCSVMHEALHNHYTQKSLSLSPGKGGGGSGGGGSDIQMTQSPSSLSASVGDRVTITCRPTENIYSYLAWYQQKPGKAPKLLIYFARTLAEGVPSRFSGSGSGTDFTLTISSLQPEDFATYYCQHHYGTPWTFGGGTKVEIKGGGGSGGGGSGGGGSGGGGSQVQLVQSGAEVKKPGASVKVSCKASGYTFTTYWMHWVRQAPGQGLEWMGVIDPSDSDTTYNQKFKGRVTMTRDTSTSTVYMELSSLRSEDTAVYYCTRSLDGYYDYWGQGTLVTVSS
light: B4 light
notes: huC2C1A1A1-V15 IgG with an anti-TSLP scFv (VL-VH) at the C-terminus of the heavy chain; AQQ and YTE already stand in the entry

Columns and labels:
[1] = target: T1, human IL4Rα expressed on 293F-IL4Rα cell surface (human, UniProt P24394 26-825); test: cell-based blocking FACS on 293F-IL4Rα cells; blocked ligand biotin human IL4
T1 construct: whole, on cells; also called human IL4Rα-expressing cells; cell surface IL4R
Description: (§1) Then, 1×10⁵ cells per well were incubated in 96 well-plates in 100 μL of serially diluted bispecific antibodies, the positive controls or negative control (starting at 100 nM with a 5-fold serial dilution) in FACS buffer for 40 minutes on ice. […] The plates were washed twice with FACS buffer, and then added and incubated for 40 minutes at 4° C. in dark with 100 μL/well R-Phycoerythrin Streptavidin (1:500 dilution in FACS buffer, Jackson Immunoresearch, Cat #016-110-084). Cells were washed twice and resuspended in FACS buffer. Fluorescence was measured using a Becton Dickinson FACS Canto II-HTS equipment. Data was analyzed using Graphpad Prism and IC₅₀ values were reported.

[2] = target: T2, biotin-labeled human TSLP-Fc (human, biotin-labeled); test: cell-based blocking FACS: antibody pre-mixed with biotin human TSLP-Fc; blocked binding to cell-surface TSLPR/IL7Ra on HEK293T-TSLPR/IL7R/STAT5-Luc 5C5 cells
T2 construct: also called TSLP-Fc protein; TSLP-Fc-biotin
Description: (§2) The cells were prepared following the instruction of lipofectamine 3000 transfection reagent (Thermo Fisher), by transfecting HEK293T cells (ATCC® CRL-11268) with pCMV-T-P plasmids inserted with TSLPR coding sequence between EcoRI and Xba1 sites and pCMV3-SP plasmids inserted with IL7Ra coding sequence between HindIII and Xba1 sites as well as pGL4.52 [luc2P/STAT5RE/Hygro](Promega).
(§3) The cells were harvested from cell culture flasks, washed twice and re-suspended in phosphate buffered saline (PBS) containing 2% v/v Fetal Bovine Serum (FACS buffer). […] Cells were washed twice with FACS buffer, and then added and incubated with 100 μL/well R-Phycoerythrin Streptavidin (1:500 dilution in FACS buffer, Jackson Immunoresearch, Cat #016-110-084) for 40 minutes at 4° C. in dark. Cells were washed twice and re-suspended in FACS buffer. Fluorescence was measured using a Becton Dickinson FACS Canto II-HTS equipment. Data was analyzed using Graphpad Prism and IC₅₀ values were reported.

[3] = target: T1, human IL4Rα expressed on 293F-IL4Rα …; test: cell-based blocking FACS on 293F-IL4Rα cells; blocked ligand biotin human IL4; remark: listed apart in the source
Description: as §1

[4] = target: T3, recombinant human IL4Rα-his (human, UniProt P24394 26-231, limits assumed, biotin-labeled in the capture ELISA); test: competitive ELISA: coated human IL4Rα-his, antibody titrated; blocked ligand biotin human IL4
T3 construct: In-house made; not shown: His tag at the C-terminus
Description: Briefly, 100 μL human IL4Rα-his proteins (prepared in-house, IL4Rα of SEQ ID NO: 33 with C-terminal His tag) were coated on 96-well micro plates at 2 μg/mL in PBS overnight at 4° C. The next day, plates were washed with wash buffer (PBS+0.05% w/v Tween-20, PBST), and blocked with 5% w/v non-fatty milk in PBST for 2 hours at 37° C. Plates were then washed again using wash buffer. Serially diluted bispecific antibodies or the controls (starting at 100 nM with a 5-fold serial dilution) in 2.5% w/v non-fatty milk in PBST, 100 μL per well, were added to the IL4Rα bound plates, and incubated at 37° C. for 40 minutes. […] Plates were washed again using wash buffer. Thereafter, the plates were added with 100 μL/well of streptavidin conjugated HRP (1:10000 dilution in PBST buffer, Jackson Immunoresearch, Cat #016-030-084) and incubated for 40 minutes at 37° C. Plates were washed again using wash buffer. Finally, TMB was added and the reaction was stopped using 1M H₂SO₄, and the absorbance was read at 450 nm. Data was analyzed using Graphpad Prism and IC₅₀ values were reported.

[5] = target: T2, biotin-labeled human TSLP-Fc; test: cell-based blocking FACS: antibody pre-mixed with biotin human TSLP-Fc; blocked binding to cell-surface TSLPR/IL7Ra on HEK293T-TSLPR/IL7R/STAT5-Luc 5C5 cells; remark: listed apart in the source
Description: as §2, §3

Binder | IC50 [1] | IC50 [2] | IC50 [3] | IC50 [4] | IC50 [5]
B1 | 0.204 nM | 1.47 nM | – | – | –
B2 | – | – | 0.381 nM | 0.449 nM | 1.39 nM
B3 | 0.168 nM | 1.31 nM | – | – | –
B4 | 0.137 nM | 1.73 nM | – | – | –
B5 | 0.144 nM | 4.23 nM | – | – | –
